Experimental data: article PMC5379210 (Scientific Reports, 2017)

Tests used:
[1] = biological target: S. cerevisiae Gpi8 (23-337aa) (S. cerevisiae) (UniProt P49018); assay: SEC; single purified protein on Superdex 200 10/300 GL, 20 mM Tris-HCl pH 8, 150 mM NaCl, purified without reducing agent (non-reducing) or with 2.5 mM DTT; re-runs of peaks; dimer to monomers
[2] = biological target: S. cerevisiae Gpi8 (23-306aa) C85A (S. cerevisiae) (UniProt P49018); assay: as above
[3] = biological target: S. cerevisiae Gpi8 (23-306aa) C85A (S. cerevisiae) (UniProt P49018); assay: SEC-MALS; C85A mutant under reducing conditions
[4] = biological target: the molecule itself; assay: SEC; single purified protein on Superdex 200 10/300 GL, 20 mM Tris-HCl pH 8, 150 mM NaCl, purified without reducing agent (non-reducing) or with 2.5 mM DTT; re-runs of peaks; dimer to monomers

Molecule	stoichiometry N [4]	other results
S. cerevisiae Gpi8 (23-337aa) (from UniProt P49018 23-337) (domain or fragment)	–	stoichiometry N [1]: 2
S. cerevisiae Gpi8 (23-306aa) C85A (from UniProt P49018 23-306) (domain or fragment)	–	stoichiometry N [2]: 2; stoichiometry N [3]: 2
S. cerevisiae Gpi8 (23-379aa) C373A (domain or fragment, UniProt P49018 23-379, looked up, S. cerevisiae Gpi8, full-length luminal construct, residues 23-379, with C373A; also called C373A mutant) NNTDAAHEVIATNTNNWAVLVSTSRFWFNYRHMANVLSMYRTVKRLGIPDSQIILMLSDDVACNSRNLFPGSVFNNKDHAIDLYGDSVEVDYRGYEVTVENFIRLLTDRWTEDHPKSKRLLTDENSNIFIYMTGHGGDDFLKFQDAEEIASEDIADAFQQMYEKKRYNEIFFMIDTCQANTMYSKFYSPNILAVGSSEMDESSYSHHSDVEIGVAVIDRFTYYCLDFLEQIDKNSTLTLQDLFDSFTFEKIHSHVGVRTDLFDRNPSEVLITDFFANVQNVIPDDSKPLSVSHYHHYKDHIDTAQYELNNNVLDLALETYRKNNQSSKIEKKIKDIKSTSVLDVDIDSNEAFFTSFK	2	–
S. cerevisiae Gpi8 (23-306aa), caspase-like domain, insect cell expressed (N-glycosylated) (domain or fragment, UniProt P49018 23-306, looked up, N-glycosylated (two predicted N-glycosylation sites in 23-306), The construct has an N-terminal gp67 signal peptide for secretion (pFastBac-dual); Runs as a disulfide-linked dimer; also called insect cell expressed Gpi8; not shown: 6xHis, C-terminal, kept) NNTDAAHEVIATNTNNWAVLVSTSRFWFNYRHMANVLSMYRTVKRLGIPDSQIILMLSDDVACNSRNLFPGSVFNNKDHAIDLYGDSVEVDYRGYEVTVENFIRLLTDRWTEDHPKSKRLLTDENSNIFIYMTGHGGDDFLKFQDAEEIASEDIADAFQQMYEKKRYNEIFFMIDTCQANTMYSKFYSPNILAVGSSEMDESSYSHHSDVEIGVAVIDRFTYYCLDFLEQIDKNSTLTLQDLFDSFTFEKIHSHVGVRTDLFDRNPSEVLITDFFANVQNVIPD	2	–
S. cerevisiae Gpi8 (23-306aa), E. coli SHuffle expressed (domain or fragment, UniProt P49018 23-306, looked up, Same construct as m12, other E. coli strain (constitutively expresses DsbC); also called E. coli Shuffle-expressed Gpi8) NNTDAAHEVIATNTNNWAVLVSTSRFWFNYRHMANVLSMYRTVKRLGIPDSQIILMLSDDVACNSRNLFPGSVFNNKDHAIDLYGDSVEVDYRGYEVTVENFIRLLTDRWTEDHPKSKRLLTDENSNIFIYMTGHGGDDFLKFQDAEEIASEDIADAFQQMYEKKRYNEIFFMIDTCQANTMYSKFYSPNILAVGSSEMDESSYSHHSDVEIGVAVIDRFTYYCLDFLEQIDKNSTLTLQDLFDSFTFEKIHSHVGVRTDLFDRNPSEVLITDFFANVQNVIPD	2	–
S. cerevisiae Gpi8 (23-306aa) C246A (domain or fragment, UniProt P49018 23-306, looked up, the methods print Cys244Ala) NNTDAAHEVIATNTNNWAVLVSTSRFWFNYRHMANVLSMYRTVKRLGIPDSQIILMLSDDVACNSRNLFPGSVFNNKDHAIDLYGDSVEVDYRGYEVTVENFIRLLTDRWTEDHPKSKRLLTDENSNIFIYMTGHGGDDFLKFQDAEEIASEDIADAFQQMYEKKRYNEIFFMIDTCQANTMYSKFYSPNILAVGSSEMDESSYSHHSDVEIGVAVIDRFTYYALDFLEQIDKNSTLTLQDLFDSFTFEKIHSHVGVRTDLFDRNPSEVLITDFFANVQNVIPD	2	–
S. cerevisiae Gpi8 (23-306aa), E. coli BL21 expressed (domain or fragment, UniProt P49018 23-306, looked up, Cloned into NdeI-XhoI sites of pET26a (so in the source); also called E. coli expressed Gpi8) NNTDAAHEVIATNTNNWAVLVSTSRFWFNYRHMANVLSMYRTVKRLGIPDSQIILMLSDDVACNSRNLFPGSVFNNKDHAIDLYGDSVEVDYRGYEVTVENFIRLLTDRWTEDHPKSKRLLTDENSNIFIYMTGHGGDDFLKFQDAEEIASEDIADAFQQMYEKKRYNEIFFMIDTCQANTMYSKFYSPNILAVGSSEMDESSYSHHSDVEIGVAVIDRFTYYCLDFLEQIDKNSTLTLQDLFDSFTFEKIHSHVGVRTDLFDRNPSEVLITDFFANVQNVIPD	2	–
S. cerevisiae Gpi8 (23-306aa), insect cell expressed in the presence of tunicamycin (nonglycosylated) (domain or fragment, UniProt P49018 23-306, looked up, N-terminal gp67 signal peptide in the construct; also called nonglycosylated Gpi8; insect cell expressed Gpi8 in the presence of tunicamycin) NNTDAAHEVIATNTNNWAVLVSTSRFWFNYRHMANVLSMYRTVKRLGIPDSQIILMLSDDVACNSRNLFPGSVFNNKDHAIDLYGDSVEVDYRGYEVTVENFIRLLTDRWTEDHPKSKRLLTDENSNIFIYMTGHGGDDFLKFQDAEEIASEDIADAFQQMYEKKRYNEIFFMIDTCQANTMYSKFYSPNILAVGSSEMDESSYSHHSDVEIGVAVIDRFTYYCLDFLEQIDKNSTLTLQDLFDSFTFEKIHSHVGVRTDLFDRNPSEVLITDFFANVQNVIPD	2	–
S. cerevisiae Gpi8 (23-306aa) C199A (domain or fragment, UniProt P49018 23-306, looked up) NNTDAAHEVIATNTNNWAVLVSTSRFWFNYRHMANVLSMYRTVKRLGIPDSQIILMLSDDVACNSRNLFPGSVFNNKDHAIDLYGDSVEVDYRGYEVTVENFIRLLTDRWTEDHPKSKRLLTDENSNIFIYMTGHGGDDFLKFQDAEEIASEDIADAFQQMYEKKRYNEIFFMIDTAQANTMYSKFYSPNILAVGSSEMDESSYSHHSDVEIGVAVIDRFTYYCLDFLEQIDKNSTLTLQDLFDSFTFEKIHSHVGVRTDLFDRNPSEVLITDFFANVQNVIPD	2	–
S. cerevisiae Gpi8 (23-359aa) (domain or fragment, UniProt P49018 23-359, looked up, S. cerevisiae Gpi8, C-terminal truncation of the luminal domain, residues 23-359; also called S. cerevisiae Gpi8 (23-359aa)^BL21) NNTDAAHEVIATNTNNWAVLVSTSRFWFNYRHMANVLSMYRTVKRLGIPDSQIILMLSDDVACNSRNLFPGSVFNNKDHAIDLYGDSVEVDYRGYEVTVENFIRLLTDRWTEDHPKSKRLLTDENSNIFIYMTGHGGDDFLKFQDAEEIASEDIADAFQQMYEKKRYNEIFFMIDTCQANTMYSKFYSPNILAVGSSEMDESSYSHHSDVEIGVAVIDRFTYYCLDFLEQIDKNSTLTLQDLFDSFTFEKIHSHVGVRTDLFDRNPSEVLITDFFANVQNVIPDDSKPLSVSHYHHYKDHIDTAQYELNNNVLDLALETYRKNNQSSKIEKKIKDIK	2	–
